The values below come from PMC10397247.

Test [1] deals with T1, 4H918-bN.
T1 chain: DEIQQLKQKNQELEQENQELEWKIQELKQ
The test can be described thus: two-hybrid library CCNG1.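 Further: natural log of median RNA to DNA barcode read ratio; higher means stronger binding.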

The target of test [2] is T2, 4H908-bN.
T2 chain: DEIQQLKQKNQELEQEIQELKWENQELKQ
As to the kind of experiment: two-hybrid library CCNG1.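 Further: natural log of median RNA to DNA barcode read ratio; higher means stronger binding.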

The target of test [3] is T3, 4H797-bN.
T3 chain: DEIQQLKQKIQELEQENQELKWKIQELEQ
The test can be described thus: two-hybrid library CCNG1.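 Further: natural log of median RNA to DNA barcode read ratio; higher means stronger binding.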

For test [4], the target named is T4, 4H72-bN.
T4 chain: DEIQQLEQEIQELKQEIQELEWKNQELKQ
As to the kind of experiment: two-hybrid library CCNG1.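 Further: natural log of median RNA to DNA barcode read ratio; higher means stronger binding.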

Test [5] deals with T5, 4H967-bN.
T5 chain: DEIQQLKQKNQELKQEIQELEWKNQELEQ
As to the kind of experiment: two-hybrid library CCNG1.

Test [6] deals with T6, 4H883-bN.
T6 chain: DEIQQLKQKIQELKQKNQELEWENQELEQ
The test can be described thus: two-hybrid library CCNG1.

Test [7] concerns the target T7, 4H754-bN.
T7 chain: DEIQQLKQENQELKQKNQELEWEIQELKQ
As to the kind of experiment: two-hybrid library CCNG1.

In test [8] the target is T8, 4H953-bN.
T8 chain: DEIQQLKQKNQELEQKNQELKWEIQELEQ
As to the kind of experiment: two-hybrid library CCNG1.

The target in test [9] is T9, 4H717-bN.
T9 chain: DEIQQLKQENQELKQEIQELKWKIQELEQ
The test can be described thus: two-hybrid library CCNG1.

Test [10] addresses T10, APC7099-AA.
T10 chain: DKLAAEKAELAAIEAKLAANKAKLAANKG
As to the kind of experiment: two-hybrid library CCmax.

In test [11] the target is T11, APC8910-AA.
T11 chain: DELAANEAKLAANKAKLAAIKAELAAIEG
The test can be described thus: two-hybrid library CCmax. The settings on record: mean of both orientations.

In test [12] the target is T12, APC9096-AA.
T12 chain: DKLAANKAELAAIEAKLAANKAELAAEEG
As to the kind of experiment: two-hybrid library CCmax. The settings on record: mean of both orientations.

The target of test [13] is T13, APC9319-AA.
T13 chain: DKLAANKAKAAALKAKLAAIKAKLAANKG
The test can be described thus: two-hybrid library CCmax. The settings on record: mean of both orientations.

For test [14], the target named is T14, APC8191-AA.
T14 chain: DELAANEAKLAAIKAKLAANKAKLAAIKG
As to the kind of experiment: two-hybrid library CCmax. The settings on record: mean of both orientations.

Test [15] addresses T15, 4H3595-AA.
T15 chain: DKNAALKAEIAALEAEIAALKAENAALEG
As to the kind of experiment: two-hybrid library CCmax.

Test [16] concerns the target T16, 4H3782-AA.
T16 chain: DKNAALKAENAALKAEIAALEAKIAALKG
As to the kind of experiment: two-hybrid library CCmax. The settings on record: mean of both orientations.

In test [17] the target is T17, 4H3969-AA.
T17 chain: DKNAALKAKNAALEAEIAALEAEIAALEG
As to the kind of experiment: two-hybrid library CCmax. The settings on record: mean of both orientations.

Test [18] addresses T18, 4H380-AA.
T18 chain: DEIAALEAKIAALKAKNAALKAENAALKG
The test can be described thus: two-hybrid library CCmax. The settings on record: mean of both orientations.

Test [19] addresses T19, 4H464-AA.
T19 chain: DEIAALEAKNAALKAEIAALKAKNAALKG
As to the kind of experiment: two-hybrid library CCmax. The settings on record: mean of both orientations.

Test [20] has as its target T20, 4H483-AA.
T20 chain: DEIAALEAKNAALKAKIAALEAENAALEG
The test can be described thus: two-hybrid library CCmax. The settings on record: mean of both orientations.

Test [21] deals with T21, 4H446-AA.
T21 chain: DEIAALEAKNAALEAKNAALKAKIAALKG
The test can be described thus: two-hybrid library CCmax. The settings on record: mean of both orientations.

The target in test [22] is T22, 4H63-AA.
T22 chain: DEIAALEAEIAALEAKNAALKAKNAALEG
The test can be described thus: two-hybrid library CCmax. The settings on record: mean of both orientations.

In test [23] the target is T23, 4H3629-AA.
T23 chain: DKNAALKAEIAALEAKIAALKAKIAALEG
As to the kind of experiment: two-hybrid library CCmax. The settings on record: mean of both orientations.

Test [24] concerns the target T24, 4H3939-AA.
T24 chain: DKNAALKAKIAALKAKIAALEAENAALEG
The test can be described thus: two-hybrid library CCmax. The settings on record: mean of both orientations.

Test [25] addresses T25, 4H687-bN.
T25 chain: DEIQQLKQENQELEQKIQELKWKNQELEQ
As to the kind of experiment: two-hybrid library CCNG1.

Test [26] concerns the target T26, 4H607-bN.
T26 chain: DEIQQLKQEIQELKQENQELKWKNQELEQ
As to the kind of experiment: two-hybrid library CCNG1.

For test [27], the target named is T27, 4H568-bN.
T27 chain: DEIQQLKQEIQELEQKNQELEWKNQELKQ
The test can be described thus: two-hybrid library CCNG1.

The target in test [28] is T28, 4H481-AA.
T28 chain: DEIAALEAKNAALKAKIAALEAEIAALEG
As to the kind of experiment: two-hybrid library CCmax.

Test [29] concerns the target T29, 4H55-AA.
T29 chain: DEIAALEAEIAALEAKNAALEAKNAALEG
The test can be described thus: two-hybrid library CCmax.

The target of test [30] is T30, 4H662-AA.
T30 chain: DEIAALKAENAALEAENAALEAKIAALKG
The test can be described thus: two-hybrid library CCmax. The settings on record: mean of both orientations.

In test [31] the target is T31, 4H982-AA.
T31 chain: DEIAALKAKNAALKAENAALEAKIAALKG
The test can be described thus: two-hybrid library CCmax. The settings on record: mean of both orientations.

The target of test [32] is T32, 4H3588-AA.
T32 chain: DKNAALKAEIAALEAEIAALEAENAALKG
The test can be described thus: two-hybrid library CCmax. The settings on record: mean of both orientations.

In test [33] the target is T33, 4H3718-AA.
T33 chain: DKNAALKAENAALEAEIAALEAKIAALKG
The test can be described thus: two-hybrid library CCmax. The settings on record: mean of both orientations.

Test [34] addresses T34, 4H3606-AA.
T34 chain: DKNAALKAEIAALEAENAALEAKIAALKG
The test can be described thus: two-hybrid library CCmax. The settings on record: mean of both orientations.

The target of test [35] is T35, 4H3378-AA.
T35 chain: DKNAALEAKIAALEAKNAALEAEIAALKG
The test can be described thus: two-hybrid library CCmax.

Test [36] concerns the target T36, 4H3865-AA.
T36 chain: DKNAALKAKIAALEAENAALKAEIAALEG
The test can be described thus: two-hybrid library CCmax. The settings on record: mean of both orientations.

For test [37], the target named is T37, 4H3631-AA.
T37 chain: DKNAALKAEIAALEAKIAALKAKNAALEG
As to the kind of experiment: two-hybrid library CCmax. The settings on record: mean of both orientations.

Test [38] has as its target T38, 4H3697-AA.
T38 chain: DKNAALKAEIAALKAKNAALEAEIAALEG
The test can be described thus: two-hybrid library CCmax. The settings on record: mean of both orientations.

Test [39] deals with T39, 4H3413-AA.
T39 chain: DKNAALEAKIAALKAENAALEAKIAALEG
The test can be described thus: two-hybrid library CCmax. The settings on record: mean of both orientations.

In test [40] the target is T40, 4H384-AA.
T40 chain: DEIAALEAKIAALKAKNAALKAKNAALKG
The test can be described thus: two-hybrid library CCmax. The settings on record: mean of both orientations.

Test [41] addresses T41, 4H340-AA.
T41 chain: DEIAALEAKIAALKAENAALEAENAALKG
As to the kind of experiment: two-hybrid library CCmax. The settings on record: mean of both orientations.

In test [42] the target is T42, 4H697-AA.
T42 chain: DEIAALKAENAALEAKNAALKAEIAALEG
The test can be described thus: two-hybrid library CCmax. The settings on record: mean of both orientations.

The target in test [43] is T43, 4H32-AA.
T43 chain: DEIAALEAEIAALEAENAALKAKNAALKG
As to the kind of experiment: two-hybrid library CCmax.

Like-named read-outs stand apart in the source and are kept apart here.

B1: 4H717-bN (peptide)
chain: DEIQQLKQENQELKQEIQELKWKIQELEQ
Take B1: the interaction score in [1] is -1.09; in test [2], -0.377; in test [3] it was -1.95; in test [4], -1.73; in test [5], -0.445; in test [6] it was -0.0445. Besides, the interaction score was -0.997 in [7], -1.57 in test [8] and 1.4 in test [9].

B2: APC7099-AA (peptide)
chain: DKLAAEKAELAAIEAKLAANKAKLAANKG
As for B2, the interaction score is -1.86 in test [10]; -2.07 in test [11]; -1.55 in test [12]; -2.06 in test [13]; -1.62 in test [14].

B3: 4H3595-AA (peptide)
chain: DKNAALKAEIAALEAEIAALKAENAALEG
B3: the interaction score in [15] was -0.866; in test [16], -1.1; in test [17], -1.4; in [18] it was 0.0185; in test [19] it was 1.2; in [20] it was -1.8. Moreover, the interaction score in [21] was -1.59; in test [22] it was -0.914; in [23], 0.754; in test [24], -0.576.

B4: 4H687-bN (peptide)
chain: DEIQQLKQENQELEQKIQELKWKNQELEQ
As to B4, the interaction score is -0.686 in [1]; -0.555 in [2]; 0.169 in test [3]; -1.56 in test [4]; 0.425 in test [5]; 0.227 in test [6]. In addition, the interaction score was 0.422 in test [7], -0.549 in [25], -1.1 in test [8] and 0.114 in [9].

B5: 4H568-bN (peptide)
chain: DEIQQLKQEIQELEQKNQELEWKNQELKQ
Take B5: the interaction score was -0.124 in test [1]; 1.08 in test [2]; 0 in test [3]; -0.806 in [4]; -0.452 in test [5]; -0.164 in [26]. The interaction score in test [6] was 1.1; in test [7] it was 0.0731; in test [25], 0.312; in test [27], 0.761; in [8], -1.93; in [9], -0.157.

B6: 4H481-AA (peptide)
chain: DEIAALEAKNAALKAKIAALEAEIAALEG
For B6, the interaction score in test [28] is 0.282; in test [29] it was -1.31; in test [30], 1.83.

B7: 4H32-AA (peptide)
chain: DEIAALEAEIAALEAENAALKAKNAALKG
Consider B7, for which the interaction score in [31] is -0.329; in [32] it was -0.686; in [33] it was -0.924; in test [34], -0.292; in test [35] (mean of both orientations), -1.84; in test [36], 1.4. Further, the interaction score in test [37] is -0.675; in test [38], -0.509; in [39], 0.814; in test [40], 1.2; in [41] it was 1.89; in [42], -1.89. This molecule also came in with an interaction score in test [43] of 0.0438.

B8: 4H3378-AA (peptide)
chain: DKNAALEAKIAALEAKNAALEAEIAALKG
With B8, the interaction score is -1.5 in [31]; -1.31 in test [32]; -1.79 in test [33]; -0.302 in test [34]; 1.2 in [35]; -0.877 in [36]. Besides, the interaction score in test [37] was -1.65; in [38], -1.32; in test [39], -1.24; in [40], -1.9; in [41], -1.86; in test [42], -2.13.
